Assay results from patent US20120321557A1 (FORERUNNER PHARMA RESEARCH, published 2012).

Columns and labels:
human ICAM1 = molecular target: T1, human ICAM1 (human, UniProt P05362 28-532); experiment: FACS on ICAM1-expressing BaF3 transfectant, anti-mouse IgG-FITC detection
T1 construct: also called ICAM1/BaF3 (cells that carry it)
Procedure: (§1) Next, using these cell lines thus established, the cross-reactivity of IB23 with the ICAM family was analyzed. Each 10 μg/ml of the IB23 antibody, an anti-human ICAM1 antibody (R&D Systems, Inc., #BBA3), and an anti-human ICAM5 antibody (R&D Systems, Inc., #MAB1950) were reacted with ICAM1/BaF3 and ICAM5/BaF3. Then, after staining with an anti-mouse IgG-FITC antibody (Beckman Coulter #IM0819), the binding of each antibody was analyzed by FACS (Becton, Dickinson and Company).

human ICAM5 = molecular target: T2, human ICAM5 (human, UniProt Q9UMF0 32-924); experiment: FACS on ICAM5-expressing BaF3 transfectant, anti-mouse IgG-FITC detection
T2 construct: also called ICAM5/BaF3 (cells that carry it)
T2 sequence: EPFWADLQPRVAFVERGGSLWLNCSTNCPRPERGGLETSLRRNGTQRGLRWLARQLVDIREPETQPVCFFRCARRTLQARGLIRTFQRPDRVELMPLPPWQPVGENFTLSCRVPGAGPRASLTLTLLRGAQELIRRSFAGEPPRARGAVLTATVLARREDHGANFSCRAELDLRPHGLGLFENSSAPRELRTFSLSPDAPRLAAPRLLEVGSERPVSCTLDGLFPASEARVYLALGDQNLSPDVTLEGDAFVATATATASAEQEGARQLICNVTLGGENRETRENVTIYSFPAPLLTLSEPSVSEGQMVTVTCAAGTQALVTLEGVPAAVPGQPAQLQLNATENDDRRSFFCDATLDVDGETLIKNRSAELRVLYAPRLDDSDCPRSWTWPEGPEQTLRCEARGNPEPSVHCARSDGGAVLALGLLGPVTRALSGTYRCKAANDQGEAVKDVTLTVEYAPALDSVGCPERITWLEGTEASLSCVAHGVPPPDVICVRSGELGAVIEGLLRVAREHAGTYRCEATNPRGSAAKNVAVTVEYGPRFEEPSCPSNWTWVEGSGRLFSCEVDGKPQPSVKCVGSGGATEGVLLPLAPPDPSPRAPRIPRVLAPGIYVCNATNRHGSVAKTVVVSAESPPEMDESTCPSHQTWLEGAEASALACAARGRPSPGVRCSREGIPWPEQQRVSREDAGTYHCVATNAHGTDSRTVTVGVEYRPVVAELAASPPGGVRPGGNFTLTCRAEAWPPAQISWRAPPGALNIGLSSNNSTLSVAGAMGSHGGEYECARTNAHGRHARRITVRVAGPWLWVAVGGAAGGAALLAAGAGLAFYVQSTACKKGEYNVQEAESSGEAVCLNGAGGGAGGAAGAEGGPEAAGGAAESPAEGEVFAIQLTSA
Procedure: as §1

T1 sequence (P05362 28-532 K469E limits assumed): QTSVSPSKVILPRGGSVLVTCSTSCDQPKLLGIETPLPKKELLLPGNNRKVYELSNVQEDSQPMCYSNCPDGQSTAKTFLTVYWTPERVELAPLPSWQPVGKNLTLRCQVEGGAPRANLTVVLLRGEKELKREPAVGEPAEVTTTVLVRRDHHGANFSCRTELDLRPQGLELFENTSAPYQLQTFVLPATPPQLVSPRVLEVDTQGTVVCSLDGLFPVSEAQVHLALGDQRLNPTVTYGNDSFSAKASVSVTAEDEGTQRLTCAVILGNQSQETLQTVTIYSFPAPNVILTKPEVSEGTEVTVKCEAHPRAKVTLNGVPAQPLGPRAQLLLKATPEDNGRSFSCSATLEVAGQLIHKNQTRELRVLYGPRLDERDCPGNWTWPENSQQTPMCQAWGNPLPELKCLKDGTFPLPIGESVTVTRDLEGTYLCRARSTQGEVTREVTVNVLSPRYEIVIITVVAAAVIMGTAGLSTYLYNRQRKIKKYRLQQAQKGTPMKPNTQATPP

binding result (human ICAM1): no binding (tested: 10 µg/ml) | binding result (human ICAM5): no binding (tested: 10 µg/ml)
B1: mouse monoclonal antibody IB23 (antibody, V domains shown)
VH: QVQLQQSGAELAKPGASVKMSCKASGYTFTTYWMHWVKQRPGQGLEWIGYINPNTDYTEYNQKFKDKATLTADKSSSTAFMQLSSLTSEDSAVYYCASSRDAYHGTYWGQGTLVTVSA
VL: DIVMTQSPATLSVTPGDRVSLSCRASQSISDYLHWYQQKSHESPRLLIRYASQSISGIPSRFSGSGSGSDFTLSINNVEPEDVGVYYCQNGHNFPLTFGAGTKLELK
notes: Mouse hybridoma antibody purified on Protein G and detected with anti-mouse IgG-FITC; also called IB23 antibody; mouse IB23 antibody
